A short description of the series: yeast display, Sf9 membrane polyspecificity reagent, FACS + sequencing; frameworks hold sequencing errors. The procedure, abridged:
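Nanobodies from a synthetic yeast display library (Saccharomyces cerevisiae BJ5465), induced 36–48 hours with galactose, were stained 1 hour at 4 °C with 10% biotinylated, detergent-solubilized Sf9 membrane reagent, enriched on streptavidin microbeads, then FACS-sorted. Anti-HA (expression) and streptavidin (reagent binding) fluorescence set low and high (top ~1%) gates. Polyreactivity labels come from the gate of origin. Genes were colony-PCR amplified, MiSeq 2 × 250 sequenced and filtered by CDR length.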
For “QVQLVESGGGLVQAGGSLRLSCAASGRIFSGYAMGWYRQATGKERELVAAITSVGSTNYADSVKGRFTISRDNAKNTVYLQMNSLKPEDTAVYYCAARSQIYYRYRSYGYWGQGTQVTVSS”, the “polyreactivity (PSR sort gate)” value was “high polyreactivity”.

As to “QVQLVESGGGLVQAGGSLRLSCAASGRIFVYYVMGWYRQAPGKERELVASITFRGSRTYYADSVKGRFTISRDNAKNTVYLQMNSLKPEDTAVDYCNADVWASGSRGEGYWGQGTQVTVSS”, the “polyreactivity (PSR sort gate)” value is “low polyreactivity”.

“QVQLVETGGGLVQAGGSLRLSCPASGRIFEDNAMGWYRQEPGKERELVAAIDFSGGDTYYADSVKGRFTISRDNAKNTVYLQMNSLKPEDTAVYYCAAGRSGWGYDSWGQGTQVTVSS”: the “polyreactivity (PSR sort gate)” value is “low polyreactivity”.

For the sequence “QVQLVESGGGLVQAGGSLRLSCAASGSTLWGYAMGWYRPAPGKERELVAAITSSGGITYYADSVKGRFTISRDNAKNTVYLQMNSLKPEDTAVYYCAVDYYVVGWTYLYYYRGQGTQVTVSS”, the “polyreactivity (PSR sort gate)” value is given as “low polyreactivity”.

As to “QVQLVESGGGLVQAGGSLRLSCAASGSIFDRNAMGWYRQAPGKERELVAAISVSGGSTYYADSVKGRFTISRDNAKNTVYLQMNSLKPEDTAVYYCAKAGRYANLPYGYWGQGTQVTVSS”, the “polyreactivity (PSR sort gate)” value is “high polyreactivity”.

With “QVQLVESGGGLVQAGGSLRLSCAASGGTFVSYVMGWYRQAPGKEREWVAAISVSGGRTYYADSVKGRFTISRDNAKNTVYLQMNSLKPEDTAVYYCAADSVVVGSPGNDYWGQGTQVTVSS”, the “polyreactivity (PSR sort gate)” value is on record as “high polyreactivity”.

Consider “QVQLVESGGGLVQAGGSLRLSCAASGRTFNYYAMGWYRQAPGKERELVAAISWGGGRTYYADSVKGRFTISRDNAKNTVYFQMNSLKPEDTAVFDCAARYLQLGLAYYYWGQGTQVTVSS”, for which the “polyreactivity (PSR sort gate)” value is reported as “high polyreactivity”.

With “QVQLVESGGGLVQAGGSLRISCAASGSTFEYYAMGWYRQAPGKERELVATISIDGRTNYADSVKGRFTISRDNAKKTVYLQMNSLKPEDTAVYYCAARPYWRHRYDYWGQGTQVTVSS”, the “polyreactivity (PSR sort gate)” value is reported as “low polyreactivity”.

With “QVHLVDSGGGLVQAGGSLRLSCAASGRTFYSYAMGWYRQAPGKERELVAAINSGGDTYYADSVKGRFTISRDNAKNSVYLQMNSLKPEDTAVYYCAADYYWEMDSWGQGTQVTVSS”, the “polyreactivity (PSR sort gate)” value is listed as “low polyreactivity”.

“QVQLVKSGGGLVQAGGSLRLSCAASVRTILYNAIGWYRQAPGKESELVAAITGGGSTYYADSVKGRFTISRDNAKNTVYLQMNSLKPEDTAVYYCAADLSVVRYDYWGQGTQVTVSS”: the “polyreactivity (PSR sort gate)” value is “low polyreactivity”.

“QVQLVESGGGLVQAGGSLRLSCAASGRILYSYTMGWYRQAPGKEREFVAAITRSGGGTYYADSVKGRFTISRDNAKNTVYLQMNSLKPEDTAVYYCAYYTYYLAYGYWGQGTQVTVSS”: the “polyreactivity (PSR sort gate)” value is “high polyreactivity”.

Regarding “QVQLEESGGGLVQAGGSLRLSCAASGYTFRGNARGWYRQAPGKERELVASISYSGGTTYADSVKGRFTISRDNAKNTVYLHRNSLKQEDTAVYYCNAAGFYYLYSHRQYEFWGQGTQLTVSS”, the “polyreactivity (PSR sort gate)” value was “low polyreactivity”.

“QVQHVESGGGLVQAGGSLRLSCAASGFIFDFNAMGRYRPPPGKERELVATISSDGSTNYADSVKGRFTISRDNAKNTVYLQMNSLKPEDTAVYYCNKDSHKDAGTLPGWWYDYWGQGTQVTVSS”: the “polyreactivity (PSR sort gate)” value is recorded as “low polyreactivity”.

In the case of “QVQLLESGGGLVQAGGSLRLSCAASGRTFTLYTMGWYRQAPGKERELVAAISARGGSTYYADSVKGRFTISRDNAKNTVYLQMNSLKPEDTAVYYCAAESNRLRYYYWGQGTQVTVSS”, the “polyreactivity (PSR sort gate)” value is recorded as “high polyreactivity”.

Consider “QVQLVESGGGLVQAGGSLRLSCAASGIIIYRYVMGWYRPAPGKERELVASISSSGGRTHYADSVKGRFTISRDNAKNTVYLQMNSLKPEDTAVYYCAAVQRSSFYRRYDYWGQGTQVTVSS”, for which the “polyreactivity (PSR sort gate)” value is “high polyreactivity”.

Consider “QVQLVESGGGLVQAGGSLRLSCAASGRIFDKYAMGWYRQAPGKERELVAAITRSGGRTYYADSVKGRFTISRDNAKNTVYLQMNSLKPEDTAVYYCAARYVSRFDWGQGTQVTVSS”, for which the “polyreactivity (PSR sort gate)” value is “high polyreactivity”.

Consider “QVQLVESGGGLVQAGGSLRLSCAASGRTFRQYAMGWYRQAPGKERELVAAIRTNGGRTYYADSVKGRFTISRDNAKNTVYLQMNSLKPEDTAVYYCAVYAVVQGVLFDYWGQGTQVTVSS”, for which the “polyreactivity (PSR sort gate)” value is recorded as “high polyreactivity”.

“QVQLVESGGGLVQAGGSLRLSCAASGLTFEYYTMGWYIQAPGKERELVAAITSSGGSTYYADSVKGRFTISRDNAKNTVYLQMNSLKPVDTAVYYCAAYQIYQYDGTYDYWGQGTQVTVSS”: the “polyreactivity (PSR sort gate)” value was “low polyreactivity”.

In the case of “QVQLVESGGGLVQAGGSLRLSCAASGSIFYGYAMGWYRQAPGKERELVAAIRWSDGSTYYADSVKGRFTISRDNAKNTVYLQMNSLKPEDTAVYYCNADLWVPSYLWGDYWGQGTQVTVSS”, the “polyreactivity (PSR sort gate)” value was “low polyreactivity”.

On to “QVKLVESGGGLVQAGGSLRLSCAASGSTFPGYAMGWYRQAPGKERELVAAGGSTYYADSVKGRFTISRDNAKNTVYLQMNSLKTEDTAVYYCAATWGSVQKGTYYYWGQGTQVTVSS”, for which the “polyreactivity (PSR sort gate)” value is reported as “low polyreactivity”.

For the sequence “QVQLVESGGGLVQAGGSLRLSCAASGSTFGKYAMGWYRQATGKERELVAAITNGGRTNYADSVKGRFTISRDNAMNTVYLQMNSMKPEDTAVYYCNKARYGTDDYDYWGQGTQVTVSS”, the “polyreactivity (PSR sort gate)” value was “low polyreactivity”.

Consider “QVQLVESGGGLVQAGGSLRLSCAASGSIFYYYAMGWYRQAPGKVRELVASISSGGRTYYADSVKGRFTISRDNAENTLYLQLNSLKPEDSAVYYCAVEVWWWEGDYDYWGLGTQVTVSS”, for which the “polyreactivity (PSR sort gate)” value is “high polyreactivity”.

For “QVQLVESGGGLVQAGGSLRLSCAASGSIFARNAMGWYRQAPGKERELVASITSNSGNTYYADSVKGRFTISRDNAKNTVYLQMNSLKPEDTAVYYCAADQLSDEYDYWGQGTQVTVSS”, the “polyreactivity (PSR sort gate)” value was “high polyreactivity”.

Take “QVQLVESGGGLVQAGGSLRLSCAASGGILHGYAMGWYIQEPGKERELVSGITYSGDDTNYADSVKGRFTISRDNAKNTVYLQMNSLKPEDTAVYYCAAGPVWHIFTIDYVSFDDWGQGTQVTVSS”: the “polyreactivity (PSR sort gate)” value is reported as “low polyreactivity”.

For the sequence “HAQLQDSGGGLVQAGGSLRLSCAASGNISSEYYMGWGRQAPGSGREFVAAIDYGGTTNYADNVKGRFTISRDNAKNTVYLQMNSLRPEDTAVYYCAASCDTIGLFAYWGQGTQVTVIS”, the “polyreactivity (PSR sort gate)” value is recorded as “high polyreactivity”.

Consider “QVQLVESGGGLVQAGGSLRLSCAASGYTFGHYAMGWYRQAPGKERELVAVNTSGGSTNYADSVKGRFTISRDNAKNTVYLQMNSLKPEDTAVYDCAADLYFYYVWIRDYWGQGTQVTVSS”, for which the “polyreactivity (PSR sort gate)” value was “low polyreactivity”.

In the case of “QVQLVESGGGLVQAGASLRLSCAASGSNSKSYAMGWYRPAPGKERELVAAISWRGGSTYADSVKGRFTNSRDNAKNTVYFQMNSQKPVDTAVYYWAATNYGTFWGGQSERYDYWGQGTQVTVSS”, the “polyreactivity (PSR sort gate)” value is “low polyreactivity”.

On to “QVHLVESGGGLVQAGGSLRLSCAASGSTFAKYAMGWYRQAPRKERELDASIRLSGGSTYYADSVKGRFTISRDNAKTTVYLLMNSQKPEDTAVYYCNKQFATFYYGFDYYYWGQGTQVTVSS”, for which the “polyreactivity (PSR sort gate)” value was “low polyreactivity”.

With “QVQLVESGGGLVQAGGSLRLICAASGSTFVVNAMGWYRQAPGKERELVAAIRNSGSTTYADSVKGRFTISRDNAKNTVYLQMNSLKPEDTAVYYCATDFSATVTAVQINPYDYWGQGTQVTVSS”, the “polyreactivity (PSR sort gate)” value is recorded as “low polyreactivity”.

As for “QVQLVESGAGLVQAGGSLRLSCAASGFTFWRYVMGTYRPAPGKERELVAGITSGGSTYYADSVKGRFTISRDNAKNTVYLQMNSLKPEDTAVYYCAARSGFRSRHKYDYWGQGTQVSVSS”, the “polyreactivity (PSR sort gate)” value is listed as “high polyreactivity”.

Regarding “QVQLVESGGGLVQAGGSLSLRCASYGSISFINAMGWYRQAPGKEMELVARITWSGGTTYYADSVKGRFTISRDNAKNTVYLQMNSLKPEDTAVYYCAAYIWAPLEGYEYDYWGQGTQVTVSS”, the “polyreactivity (PSR sort gate)” value was “high polyreactivity”.

For “QVQLVESGGGLVQAGGSLRLSCAASGITFYDYTMGWYRQAPGKERELVAAISSRGGSTYYADSVKGRFTISRDNAKNTVYLQMNSLKPEDTAVYYCNADYIYSFYWSFYEYDYWGQGTQVTVSS”, the “polyreactivity (PSR sort gate)” value is reported as “high polyreactivity”.

Regarding “QVQLVESGGGLVQAGGSLRLSCAASGRTFAFYAMGWYRQAPGKERELVASISSSGDRTYYADSVKGRFTISRVNAKNTVYLQMNSLKPEDTAVYYCAARWRYTYYYWGQGTQVTVSS”, the “polyreactivity (PSR sort gate)” value was “high polyreactivity”.

“QVQLVESGGGLVQAGGSLRLSCAASGTNVMGWYRQAPGKERELVAAISGSGGSTYYADSVKGRFTISRDNAKNSVYFQMNSLKPEDSAVYYCAADSIQYTARPYDYWGQGTQVTVSS”: the “polyreactivity (PSR sort gate)” value is “low polyreactivity”.

For “QVQLVESGGGLVQAGGSLRLSCYASGFIFHSYAMGWYRQAPGKERELVASISRGGGSTYYADSVKGRFTISRDNAKNTVYLQKNSLKPEDTPVYYCNAVWRSNSRFDYWGQCTQVTVSS”, the “polyreactivity (PSR sort gate)” value was “high polyreactivity”.

Regarding “QVQLVESGGALVQAGGSLRLSCAASGIVFKRYAMGWYRQAPGKEREFVATISYTGGRTYYADSVKGRFTISRDNAKNTVYLQMNSLKPEDTAVYYCATLYRSSKHQPLDYWGQGTQVNVSS”, the “polyreactivity (PSR sort gate)” value is “high polyreactivity”.

As to “QVQLVESGGGLVQAGGSLRLSCAASGLIFYLYAMGWYRQAPGKERELVAAITSGGGSTYYADSVKGRFTISRDNAKNTVYLQMNSLKPEDTAVYYCAARLVLYITVVYEDDYWGQGTQVTVSS”, the “polyreactivity (PSR sort gate)” value is reported as “low polyreactivity”.

As to “QVQLVESGGGLVQAGGSLRLSCAASGSIFDPYAMGWYRQAPGKERELVAAITASASSTYYADSVKGRFTISRDNAKNTVYLQMYSLKPEDTAVYYCAADRANWEYLLSLLGYDYWGQGTQVTVSS”, the “polyreactivity (PSR sort gate)” value is recorded as “low polyreactivity”.

For the sequence “QVQLAESGGGLVQAGGSLRLSCAASGSTFVSYAMGWYRQAPGKERELVAAIDWSGGNTDYADSVKGRFTISRDNAKNTVYLQMNSLKPEDTAVYYCNADSWPRRGYDYWGQGTQVTVSS”, the “polyreactivity (PSR sort gate)” value is reported as “low polyreactivity”.

As to “QVQLVESGGGLVQAGGSLRLSCAASGIIFDINAMGWYRQAPGKERELVAAITTSVDSTYYADSVKGRFTISRDNAKNTVYLQMNRLKPEDTAVYYCAVAFVQFTQYDYWGQGTQVTVSS”, the “polyreactivity (PSR sort gate)” value was “low polyreactivity”.

As to “QVQLVESGGGLVQAGGSLRLSSAASGRIFIRNAMGWYRQAPGKERELVAAISWSGGRTYYADSVKGRFTISRDNAKNTVYLQMNSLKPEDTAVYYCAALRYAFQYGLSYYWGQGTQVTVSS”, the “polyreactivity (PSR sort gate)” value was “high polyreactivity”.

(Values after the nanobody polyreactivity screen of Harvey et al. (2022).)
